We go through 5 molecules from patent US20240360242A1 (KISOJI BIOTECHNOLOGY, published 2024).

The target in experiment [1] is T1, recombinant human TROP2 extracellular domain (aa 1-274) comprising His tag (human, UniProt P09758 27-274).
T1 construct: Used here for all assays on recombinant human TROP2 (ELISA, immunoblot, SPR, crystal), although only some of them name the catalogue number; also called human recombinant TROP2; recombinant human TROP2 protein; not shown: His tag
T1 sequence: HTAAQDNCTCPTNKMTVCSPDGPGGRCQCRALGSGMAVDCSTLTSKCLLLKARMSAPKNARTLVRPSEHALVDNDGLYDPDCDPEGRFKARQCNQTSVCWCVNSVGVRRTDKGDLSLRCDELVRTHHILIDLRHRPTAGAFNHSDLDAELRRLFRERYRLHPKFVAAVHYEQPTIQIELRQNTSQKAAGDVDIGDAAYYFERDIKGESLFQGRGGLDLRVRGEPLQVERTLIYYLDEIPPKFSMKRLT
Nature of the experiment: ELISA, coated rh TROP2. The method, then: Human TROP2 recombinant proteins were coated on 96-well ELISA plates at the concentration of 1 μg/mL. Plates were covered with adhesive plate cover and stored at 4° C. overnight. The next day, plates were washed 3× with washing buffer (PBS with 0.1% Tween™ 20). Plates were blocked with 2% fat-free BSA in washing buffer for 1 hour at 37° C. During the incubation time, the TROP2 reference antibodies, as well as the humanized variants, were diluted in the blocking buffer to the indicated concentrations. […] After blocking, the blocking buffer was removed from the wells and 100 μL of anti-TROP2 sdAbs dilutions were transferred to the corresponding wells. Plates were covered with adhesive plates cover and incubated at 37° C. for 1 hour. During the primary antibody incubation, the secondary antibody (goat anti-human IgG, HRP conjugated) was diluted 1 in 5000 with the blocking buffer. Plates were washed 3× with blocking buffer, followed by secondary antibody incubation for another 1 hour at 37° C. After the secondary antibody incubation, plates were washed 3× with washing buffer and added with 100 μL of ELISA chemiluminescent substrate (Thermofisher). The luminescence signal was detected by SpectraMax i3x at […].
(In general: ELISA stands for enzyme-linked immunosorbent assay.)

Experiment [2] deals with T2, human TROP2 cysteine poor domain (CPD), recombinant (human, UniProt P09758 147-274).
T2 sequence: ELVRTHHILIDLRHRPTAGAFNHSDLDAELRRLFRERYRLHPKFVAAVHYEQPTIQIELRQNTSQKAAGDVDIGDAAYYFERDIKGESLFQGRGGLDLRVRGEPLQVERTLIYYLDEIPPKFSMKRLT
Nature of the experiment: immunoblot, 1 µg/mL antibody, anti-human IgG-HRP. The method, then:
Samples of recombinant proteins of human TROP2 extracellular domain (ECD) (Sino Biological, Cat. no. 10428-H08H) and human TROP2 cysteine poor domain (CPD) were prepared for SDS-PAGE analysis under reducing or non-reducing conditions with NuPAGE™ LDS Sample Buffer (ThermoFisher Cat. no NP0007) with NuPAGE™ Sample Reducing Agent (ThermoFisher Cat. no. NP0004) or without reducing agent. Samples under reducing condition were denatured by heating at 70° C. for 10 minutes. Samples (16 μL) were loaded onto 4-12% Bis-Tris mini-gels (1.5 mm, 15 wells) or 250 ng of samples were loaded onto 14% Tris-glycine mini-gels alongside a BSA standard. […] Gels were stained using GelCode™ staining reagent (Thermo Fisher, Cat. no. 24594).
Proteins were transferred to nitrocellulose membranes using the iBlot™ system (Thermo Fisher, Cat. no. IB301031) according to the manufacturer's instructions. Membranes were blocked by incubation in PBS/0.1% Tween™ 20/5% Milk for 1 hour at room temperature with shaking, followed by incubation with 1 μg/mL of Anti-TROP2 antibodies or the isotype control (IgG1 isotype) in 20 mL of PBS/0.1% Tween™ 20/5% milk. Membranes were washed three times for 10 minutes with PBS/0.1% Tween™ 20. Membranes were incubated with HRP-conjugated goat anti-human IgG antibody (Sigma-Aldrich, AP113P) diluted at 1:10000 in blocking buffer for 1 hour at room temperature with shaking. Membranes were washed three times for 10 minutes with PBS/0.1% Tween™ 20. The signal was visualized using Super Signal™ West Pico PLUS (Thermo Fisher, Cat. no. 34080) according to the manufacturer's instructions. Images were captured using the Azure Biosystem imaging system.

The target of experiment [3] is T1, recombinant human TROP2 extracellular …. Nature of the experiment: competitive ELISA on coated recombinant human TROP2, competitor KD003-His (14285.7 pM per text), anti-His-HRP. The method, then:
The epitope characterization was assessed by competitive ELISA (FIG. 8 and FIG. 9). Microplates were coated with human recombinant TROP2 at 4° C. overnight. After washing, plates were blocked with blocking buffer (PBS+2% BSA), for 1 hour at room temperature. Meanwhile, the dilution for anti-TROP2 VHH sdAbs was prepared with blocking buffer making two different dilutions depending on the tag. For sdAbs with His tag, the antibody was diluted to 28571.4 pM. For sdAbs without tag, antibodies were serially diluted from 2857142.9 pM to 0.29 pM (8 dilutions, 10×). After that, equal volume of the his-tagged sdAbs and serial diluted non-tagged sdAbs were mixed, to make the final concentration of his-tagged sdAbs 14285.7 pM and non-tagged sdAbs from 1428571.4 pM to 0.14 pM. After washing two times, the mixed antibody contents were added into the wells and the plates were incubated for 2 hours at room temperature. The HRP-conjugated anti-6× His was diluted to 1:5000 and added to the wells after washing three times. Any unbound conjugate was removed by washing after 1 hour incubation at room temperature, and the colorimetric reaction was performed by adding the same volume of Supersignal ELISA Pico Luminol/Enhancer and SuperSignal ELISA Pico Stable Peroxide Solution and detected on SpectraMax i3x Microplate Reader. Positive and negative controls were included in each plate.

As a reminder, the EC50 is the concentration that produces a half-maximal response.

B1: KD002 (antibody, human IgG1, V domains shown)
VH: QVQLQESGGGMVQVGGSLRLSCAASGFPFSSADMSWVRQAPGKGPEWVSYINADGSKTYYPDSVKGRFTISRDNAKNTLYLLMNNLKPEDTALYRCARAKLTDTHYVEDYWGQGTQVTVSS
notes: also called anti-TROP2 sdAb KD002
B1: in experiment [1], the EC50 is 0.055 nM and the “EC50% to KD005” value is 0.688 ratio to KD005. For the same molecule, the binding result in experiment [2] is recorded as “no binding (tested: 1 µg/mL)”. Also, the “IC50 (read off the curve)” value in experiment [3] was around 60 nM.

B2: KD003 (antibody, human IgG1, V domains shown)
VH: QVQLQESGGGMVQPGGSLRLSCAASGFTFSNYDMSWVRQAPGKGPEWVSYINAGGSNTDYPDSVKGRFTISRDNAKNMLYLLMNNLKPEDTALYRCARAKLTDTHYVEDYWGQGTQVTVSS
notes: also called anti-TROP2 sdAb KD003
For B2, in experiment [2], the binding result is on record as “no binding (tested: 1 µg/mL)”. For the same molecule, in experiment [3], the “IC50 (read off the curve)” value is around 30 nM.

B3: KD001 (antibody, human IgG1, V domains shown)
VH: QVQLQESGGGMVHPGGSLRLSCAASGFTFSGSDMSWVRQAPGKGPEWVSYITSGGTTYYPDSVKGRFTISRDNAKNTLYLQMNSLTPDDTALYRCAKARLTDSHYVEDAWGQGTQVTVSS
notes: also called anti-TROP2 sdAb KD001
In the case of B3, in experiment [2], the binding result was “no binding (tested: 1 µg/mL)”. In addition, the “IC50 (read off the curve)” value in experiment [3] is around 40 nM.

B4: KD005 (antibody, human IgG1, V domains shown)
VH: QVQLQESGGGLVEAGGSLRLSCAASGFTFSGSDMSWVRQAPGKGPEWVSYITSGGTTYYPDSVKGRFTISRDNAKNTLYLQMNSLKPDDTALYRCAKSRLTDSHYVEDAWGQGTQVTVSS
notes: also called anti-TROP2 sdAb KD005
On to B4, for which, in experiment [1], the EC50 is 0.08 nM and the “EC50% to KD005” value is 1 ratio to KD005. In addition, the binding result in experiment [2] is “no binding (tested: 1 µg/mL)”. Further, the “IC50 (read off the curve)” value in experiment [3] was around 40 nM.

B5: KD004 (antibody, human IgG1, V domains shown)
VH: QVQLQESGGGLVQPGRSLRLSCAASGFTFSGSDMSWVRQAPGKGPEWVSYITGSGTTYYPDSVKGRFTTSRDNAKNMLYLQMNSLKPDDTALYRCAKARLTDSHYVEDAWGQGTQVTVSS
notes: also called anti-TROP2 sdAb KD004
Regarding B5, in experiment [2], the binding result is recorded as “no binding (tested: 1 µg/mL)”. Also, in experiment [3], the “IC50 (read off the curve)” value was around 40 nM.
